Assay: yeast display, Sf9 membrane polyspecificity reagent, FACS + sequencing; frameworks hold sequencing errors
Method in brief: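 Synthetic nanobody libraries on Saccharomyces cerevisiae BJ5465 were galactose-induced for 36–48 hours, stained 1 hour at 4 °C with 10% biotinylated, detergent-solubilized Sf9 membrane reagent and enriched on streptavidin microbeads. FACS then separated cells into low and high (top ~1%) gates by anti-HA (expression) and streptavidin (reagent binding) fluorescence. Genes were colony-PCR amplified, MiSeq 2 × 250 sequenced and CDR-length filtered. A clone's polyreactivity label is that of its gate of origin.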

Sequence	polyreactivity (PSR sort gate)
QVQLVESGGGLVQAGGSLSLSSAASGRTFGIYAMGWYRQEPGKERELVAAITWSGDSTYYADSVKGRFTISRDNAKNTVYLQLNSLKPEDTAVDYCAADYVGVTYVRYDYWGQGTQVTVSS	low polyreactivity
QVQLVESGGGLVQAGGSLSLSSAASGSIFVGNAIAWYRQAPGKERELVATISWSCGSTYYADSVKGRFTISRDYAKNNVYLQMNSRKPEDTAVYYCAAEFGGYDPYDYWGQGTQVTVSS	low polyreactivity
QVQLVESGGGLVQAGGSLSLSSDASGSPLFSDAMGWYRQAPGKEREFVAAISRRGRSTYYADSVKGRFTISRDNAKNSVYFQMNSLIPEDTAVYYCAARDSSYNWYGYWGQGTQVTVSS	high polyreactivity
QVQLVESGGGLVQAGGSLSLTCAASGIIFSYNAMGWYRQATGKERELVAAISWSGGSTYYADSVKGRFTISRDNAKNTVYLQMNSLKPEDTAVYYCNAPYLIRFKRLGDNWGQGTQVTVSS	high polyreactivity
QVQLVESGGGLVQAGGSLSLTCAASGRTFESNAMGWYRQAPGKERELVAVITSGGITNYTDSVKGRFTISRDNAKNTVYLQLNSLKPVDTAVYYCEFYYWGQGTQVTVSS	low polyreactivity
QVQLVESGGGLVQAGGSLSLTCAASGSSFWPYAMGWYRQAPGKELELVAASTTRDGSTYYADSVKGRFTISRDNAKNTVYLQMISLKTEDTAVYYSAAVVLRDGWWGYYYWGQGTQVTVSS	high polyreactivity
QVQLVESGGGLVQAGGSLSLTWAASGSTFSYYVMGWYRQAPGKETELVAGITRGGRTYYADSENGRFTISRDNAKNSVFLQMNSLKPEDTAVYYCAKDQGGVLELDYWGQGTQVTVSS	low polyreactivity
QVQLVESGGGLVQAGGSPRLSCAASGFTFGHYAMGWYREAPGKERELVAAISIDGGRTYYADSVKGRFTISRDNAKNSVYLQMNSLKPEDTAVYYCAVPRWFYYYWGQGTQVTVSS	high polyreactivity
QVQLVESGGGLVQAGGSQRLSCAASGSIFLRYAMGWYRQAPGKERELVAAITSSGGSTYYADSVKGRFTISRDNAKNTVYLQMTSLKPEDTAVYYCNRYSYLFPYYWKYDYWGQGTQVTVSS	high polyreactivity
QVQLVESGGGLVQAGGSRLSCAASGLIFISYTMGWYRPAPGKERELVAAIDSSGGNTYYADSVKGRFTISRDNAKNTVYLQMNSLKPEDTAVYYCAKDVGHGAGNLMGYWGQGTQVTVSS	low polyreactivity
QVQLVESGGGLVQAGGSRRLICAASGITFFAYTLGWYRQAPGKERELVASITGSSGGTYYADSVKGRFTISRDNAKNTVYLQMNSLKPEDTAVYYCATAYGRKLLLRGFYDQSHDMDYWGQGTQVTVSS	low polyreactivity
QVQLVESGGGLVQAGGSRRLSCAASGGTFPFNAMGWYSPAPGKERELVAAITFTTSSTYYADSVKGRFTMSRDNAKNTVYLQMTSLKPEDTAVDYCAVDYGWYSAYYRESDYWGQGTQVTVSS	low polyreactivity
QVQLVESGGGLVQAGGSRRLSCAASGLICLLYDMGWYREAPGKERELVAAISTGGSTDYADSVKGRFTISRDNAKNTVYLPLNSLKPEDTAVYYCAADYYLYYLDGEDYWVQGTQVTVSS	high polyreactivity
QVQLVESGGGLVQAGGSRRLSCAASGLIYWYAMGWYRQAPGKERELVAAISSNGGSTYYADSVKGRFTISRDNAKNTVYLQMNSLKPEDTAVYYCAVTSFGYSVLERDYWGQGTQVTVSS	low polyreactivity
QVQLVESGGGLVQAGGSRRLSCAASGNTFYANVMGWYRQAPGKERELVASITWSGGSTYYADSVKGRFTISRDNAKNTVYLQMNSLKPEDTAVYYCATSGDRLVWGQGTQVTVSS	low polyreactivity
QVQLVESGGGLVQAGGSRRLSCAASGRIFDTYTMGWYRQAPGKERELVAAITTGGSTYYADSVKGRFTISRDNAMNTVYLQMNSLKPEDTAVYYCAARYRSIIRYYYWGQGTQVTVSS	high polyreactivity
QVQLVESGGGLVQAGGSRRLSCAASGRIFTTYAMGWYRQAPGKERELVAAITRNGGRTYYADSVKGRFTLSRDNAKNTVYVPMHSLKPEDTAVYYCAAVYRSFGKVYGMDYWGQGTQVTVSS	high polyreactivity
QVQLVESGGGLVQAGGSRRLSCAASGRTFEGNAMGWYRPAPGKERELVAAISTSGGRTYYADSVKGRFTISRDNAKNTVYLQLNSLIPEDTAVYDCNTDQYSPYEYSSFDSWGQCTQVTVSS	low polyreactivity
QVQLVESGGGLVQAGGSRRLSCAASGRTFPYNAMGWYRQATGKERELVATNDSSGTRTFYADSVKGRFTISRDNAKNTVYLQLNRLKPEDNAVYYCAAGIIYSNETNITSYDYWGQGTQVTVSS	low polyreactivity
QVQLVESGGGLVQAGGSRRLSCAASGRVFFNNAMGWYRQAPGKDREWVAGITSGSSTNYADSVKGRFTISRDNAKNTVYLQMNSLKPEYTAVDYCNKAPSWWDVRVPFDYWGQGTQVTVSS	low polyreactivity
QVQLVESGGGLVQAGGSRRLSCAASGSTFRGNAMGWYRQAPGKERELVAAITWSGDDTYYADSVKGRFTISRDNAKNTVYLQMNSLKPEDTAVYYCAADLAAFTLAVAYTYDYWGQGTQVTVSS	low polyreactivity
QVQLVESGGGLVQAGGSRRLSCAASGSTFWYYAMGWYRQAPGKERELVAAIRWSDGSTYYADSVKGRFTISRDNAKNTVYLQMTSLKPEDTAVYYCEYYYWGQGTQVTVSS	low polyreactivity

Sequence	polyreactivity (PSR sort gate)
QVQLVESGGGLVQAGGSRRLSCAASGSTVYTNAMGWSRQAPGKVRELVAAISGSGGSTYYADSVKGRFTISRDNPKNTVYLQMNSLKPEDTAVYYCAARSRNYDTRFDYWGQGTQVTVSS	low polyreactivity
QVQLVESGGGLVQAGGSRRLTCAGSGYIFRPYAKRWYRQAPGKERELVAVISSGGSTYYADSVKGRFTISRDNEKNTVYFQMNSLKPQDTAVYYCKRTLWSMGGTTYEYWGQGTQVTVSS	low polyreactivity
QVQLVESGGGLVQAGGSVRISCAASGRTFWYYAMGVYIQAPRKERELLAAITGRGGSTHYADSVKGRLTISRDNAKNTVYLPMISLKPEDTAVYYCAKDHYYRFPWGTGGYRGQGTQVTVSS	low polyreactivity
QVQLVESGGGLVQAGGTLPLSCAASGRTFNGNAMGWYRQAPGKERELVATINYSGGSTYYADSVKGRFTISRDNAKNTVYLQMNSLKPEDNAVYYCAAGGYPWYLRRGGFAGYDYWGQGTQLTVSS	low polyreactivity
QVQLVESGGGLVQAGGTLRISCAPSGSTCVVINMGWYRQAPGKERELVAAISYSGGSTYADSVKGRFTISRDNAKNTVYLQMNSLKLEDTAVYYCAARHYWWYDYWGQGTQVTVSS	low polyreactivity
QVQLVESGGGLVQAGGTLRLICAASAFIFDGYTMGWYRQAPGTERELVAAISRSGGRTYYADSVKGRFTISRDNAKNTVYLQMNSQKPEDTAVYDCAVRYRQYSQNLASDYGYWGQGTQVTVSS	high polyreactivity
QVQLVESGGGLVQAGGTLRLICAASGRISLRNGMGWYRQAPRKERELVAAITSGSSTDYADSVKGRFTISRDNAKNTVYLQMNSLKPEDTAVYYCAKDLLQSGPGAGRYDYWGQGTQVTVSS	low polyreactivity
QVQLVESGGGLVQAGGTLRLSCAASGGIFTDYTMGWYRQAPGKERELVAAITWTGGSTYYADSVKGRFTISRDNAKNTVYLQMNSLKPEDTAVYYCAADDYWVNLDYWGQGTQVTVSS	low polyreactivity
QVQLVESGGGLVQAGGTLRLSCAASGGIIAINAMVWYRQAPGKERELVAAISWGDGITYYADSVKGRFTISRDNAKNTVYLQMNSLKPEDTAVYYCAADEDEYRGGDETWGQGSQVTVSS	low polyreactivity
QVQLVESGGGLVQAGGTLRLSCAASGGTSRSYAMVWYRQAPGKERELVAAISWRGGRTYYADSVKGRFTISRDNAKNTVYLQMNSLKPEDTAVYYCAARQYSQETYDYWGQGSQVTVSS	high polyreactivity
QVQLVESGGGLVQAGGTLRLSCAASGIIFSFYTMGWYRQAPGKERELVAAITWSGGSTYYADSVKGRFTISRANAKNTVYLQMNSLKPEDTAVYYCNARNPWRKRSQGYSWGQGTQVTVSS	low polyreactivity
QVQLVESGGGLVQAGGTLRLSCAASGITFEHYAMGWYRQAPGKERELVAAINRSGDNTYYADSVKGRFTISRYNAKNTFYLQMNSLKPEDTAVYYCNTVELYWRGYDYWGQGTQVTVSS	high polyreactivity
QVQLVESGGGLVQAGGTLRLSCAASGLTFARYAMGWYRQAPGKERELVAGIDSTGGTTYYADSVKGRFTISRDNAKNTFYLQMISLIPEDTAVYYCNTGGTFLDWVRSPFGFGYWGQGTQVTVSS	low polyreactivity
QVQLVESGGGLVQAGGTLRLSCAASGRIFQYYDMGWYRQAPGKERELVAAITFSGGSTYYADSVKGRFTISRDNAKNTVYLQMNSLKPEDTAVYYCARGYWVYYPDGDYWGQGTQVTVSS	low polyreactivity
QVQLVESGGGLVQAGGTLRLSCAASGRIFVINTMGWYRQAPGKERELVAAISRGGSTNYADSLKGRFTISRDNAKNTVYLQMNSLKPEDTAVYYCAATGYILFAGGGYDYWGQGTQVTVSS	low polyreactivity
QVQLVESGGGLVQAGGTLRLSCAASGRIISYNPMGWYRAAAGKEMELVAPINWGGGSTYYADSVKGRFTISRDNAKNTVYLQMNSLKPEDTAVYYCNADSNWYYQWNYYGLYDYWGQGTQVTVSS	low polyreactivity
QVQLVESGGGLVQAGGTLRLSCAASGSIFANYAMGWYRQAPGKERELVASISSGDSTNYADSVKGRFTISRDNAKNTVYLQMNSLKPEDTAVYYCASTFVGGIWSGYNYWGQGTQVTVSS	low polyreactivity
QVQLVESGGGLVQAGGTLRLSCAASGSIFLINAMGWYRPAPGKERELVAAISRSGGRTYYADSVKGRFTISRDNAKNTVYLQMNSLKPEDTAVYYCAVPSIYYAGRAYDYWGQGTQVSVSS	high polyreactivity
QVQLVESGGGLVQAGGTLRLSCAASGSIFRRKVMVWYRQAPGKERELVAAMSWSGDRTYYADSVKGRFTISRDNAKNTVYLQMNSLKPEDTAVYYCAAANASPRRYGQYDDWGQGTQVTVSS	high polyreactivity
QVQLVESGGGLVQAGGTLRLSCAASGSIFYRYDMGWYRPAPGKERELVAAITWSGGSTYYADSVKGRFTISRDNAKNTVYLQMNSLKPEDTAVYYCNAPGDGYLYDHTYDYWGQGTQVTVSS	low polyreactivity
QVQLVESGGGLVQAGGTLRLSCAASGSISIRNAMGWYRQAPGKERELVAAITYSGGSTYYADSVKGRFTISRDNAKNTVYLQMNSLKPEDTAVYYCAKDHYRFRYDYWGQGTQVTVSS	low polyreactivity
